How the values were obtained:
[1] = system: cynomolgus CD73 (SEQ ID NO: 72); assay: SPR (Biacore 8K) binding affinity and kinetics to cynomolgus CD73
Description: (§1) The SPR running buffer (10 mM HEPES, 150 mM NaCl, 3 mM EDTA and 0.05% v/v Surfactant P20, pH 7.4) was prepared from 10×HBS-EP Buffer (GE Healthcare). Anti-human Fc antibodies (GE Healthcare) were immobilized via amine coupling on all sixteen flow cells of an S series sensor chip CM5 (GE Healthcare). The immobilization levels were ˜9000 RU for all flow cells. The desired capturing level of anti-CD73 antibody was achieved by flowing appropriate concentration of anti-CD73 antibody through the active flow cell of each channel. The non-cleavable ADP analogue APCP (adenosine-5′-(α,β-methylene) diphosphate) with the presence of Zn^2+ can be used to shift the CD73 conformational equilibrium from open towards closed. Therefore, recombinant CD73 was incubated with SPR running buffer in the presence of 100 μM APCP and 10 μM ZnCl2 (closed SPR running buffer) to study the binding of anti-CD73 antibody to the CD73 in the closed conformation. To achieve this, the ABA injection feature in Biacore 8K was used. For open conformation, the ABA injection sequence started with 60 seconds injection of running buffer. Then, CD73 3-fold serial dilution concentration series prepared from CD73 stock (BPS Bioscience) and running buffer were injected for 180 seconds immediately followed by running buffer for 240 seconds. For closed conformation, the normal SPR running buffer was replaced by closed SPR running buffer. Surface was regenerated with 30 seconds injection of 3 M MgCl2. […] Binding affinities and kinetic association and dissociation rate constants to human, cynomolgus, and mouse CD73 in either open or closed conformations are shown in Table 8 below. The results in Table 8 ensure cynomolgus pharmacokinetic data will reflect human pharmacokinetic data.
(§2) Binding affinities and kinetic association and dissociation rate constants to human, cynomolgus, and mouse CD73 in either open or closed conformations are shown in Table 9 below.

[2] = biological target: T1, human CD73 (SEQ ID NO: 70) (Homo sapiens, UniProt P21589); assay: SPR (Biacore 8K) binding affinity and kinetics to human CD73
T1 construct: purchased BPS Bioscience
T1 sequence (P21589 27-549): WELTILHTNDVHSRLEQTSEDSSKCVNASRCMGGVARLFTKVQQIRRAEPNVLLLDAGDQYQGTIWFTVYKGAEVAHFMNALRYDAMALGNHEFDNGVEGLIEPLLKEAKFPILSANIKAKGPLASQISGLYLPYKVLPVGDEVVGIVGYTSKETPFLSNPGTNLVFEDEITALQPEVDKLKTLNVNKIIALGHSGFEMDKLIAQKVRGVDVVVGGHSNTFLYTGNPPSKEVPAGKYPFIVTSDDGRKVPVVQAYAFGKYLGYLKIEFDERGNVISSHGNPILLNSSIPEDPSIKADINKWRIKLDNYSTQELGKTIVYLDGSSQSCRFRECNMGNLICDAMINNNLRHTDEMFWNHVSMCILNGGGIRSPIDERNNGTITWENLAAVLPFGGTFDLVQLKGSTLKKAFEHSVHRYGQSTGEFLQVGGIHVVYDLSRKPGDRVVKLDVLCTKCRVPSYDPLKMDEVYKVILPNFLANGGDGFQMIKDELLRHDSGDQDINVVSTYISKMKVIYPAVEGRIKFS
Description: as §1, §2

[3] = biological target: T2, mouse CD73 (SEQ ID NO: 71) (Mus musculus, UniProt Q61503); assay: SPR (Biacore 8K) binding affinity and kinetics to mouse CD73
T2 construct: purchased BPS Bioscience
T2 sequence (Q61503 29-551): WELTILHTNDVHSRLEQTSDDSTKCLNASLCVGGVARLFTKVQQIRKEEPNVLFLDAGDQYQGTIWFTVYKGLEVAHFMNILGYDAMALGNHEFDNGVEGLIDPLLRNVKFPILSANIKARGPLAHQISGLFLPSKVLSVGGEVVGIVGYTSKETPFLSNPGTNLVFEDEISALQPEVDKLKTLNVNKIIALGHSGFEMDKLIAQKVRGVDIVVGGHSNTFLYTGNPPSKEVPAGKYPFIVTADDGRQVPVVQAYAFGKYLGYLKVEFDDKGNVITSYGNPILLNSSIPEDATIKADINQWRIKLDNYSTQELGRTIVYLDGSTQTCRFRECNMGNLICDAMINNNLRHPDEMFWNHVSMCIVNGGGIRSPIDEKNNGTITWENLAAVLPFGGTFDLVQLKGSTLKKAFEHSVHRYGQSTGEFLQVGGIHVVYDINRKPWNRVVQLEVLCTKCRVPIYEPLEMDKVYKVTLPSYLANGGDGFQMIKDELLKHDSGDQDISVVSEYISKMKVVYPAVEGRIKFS
Description: The SPR running buffer (10 mM HEPES, 150 mM NaCl, 3 mM EDTA and 0.05% v/v Surfactant P20, pH 7.4) was prepared from 10×HBS-EP Buffer (GE Healthcare). Anti-human Fc antibodies (GE Healthcare) were immobilized via amine coupling on all sixteen flow cells of an S series sensor chip CM5 (GE Healthcare). The immobilization levels were ˜9000 RU for all flow cells. The desired capturing level of anti-CD73 antibody was achieved by flowing appropriate concentration of anti-CD73 antibody through the active flow cell of each channel. The non-cleavable ADP analogue APCP (adenosine-5′-(α,β-methylene) diphosphate) with the presence of Zn^2+ can be used to shift the CD73 conformational equilibrium from open towards closed. Therefore, recombinant CD73 was incubated with SPR running buffer in the presence of 100 μM APCP and 10 μM ZnCl2 (closed SPR running buffer) to study the binding of anti-CD73 antibody to the CD73 in the closed conformation. To achieve this, the ABA injection feature in Biacore 8K was used. For open conformation, the ABA injection sequence started with 60 seconds injection of running buffer. Then, CD73 3-fold serial dilution concentration series prepared from CD73 stock (BPS Bioscience) and running buffer were injected for 180 seconds immediately followed by running buffer for 240 seconds. […]

human CD73 = biological target: T3, human CD73 (Homo sapiens, UniProt P21589); assay: Epitope mapping by hydrogen-deuterium exchange mass spectrometry (HDX); details: Fab in complex with CD73
T3 sequence (P21589 27-549 limits assumed): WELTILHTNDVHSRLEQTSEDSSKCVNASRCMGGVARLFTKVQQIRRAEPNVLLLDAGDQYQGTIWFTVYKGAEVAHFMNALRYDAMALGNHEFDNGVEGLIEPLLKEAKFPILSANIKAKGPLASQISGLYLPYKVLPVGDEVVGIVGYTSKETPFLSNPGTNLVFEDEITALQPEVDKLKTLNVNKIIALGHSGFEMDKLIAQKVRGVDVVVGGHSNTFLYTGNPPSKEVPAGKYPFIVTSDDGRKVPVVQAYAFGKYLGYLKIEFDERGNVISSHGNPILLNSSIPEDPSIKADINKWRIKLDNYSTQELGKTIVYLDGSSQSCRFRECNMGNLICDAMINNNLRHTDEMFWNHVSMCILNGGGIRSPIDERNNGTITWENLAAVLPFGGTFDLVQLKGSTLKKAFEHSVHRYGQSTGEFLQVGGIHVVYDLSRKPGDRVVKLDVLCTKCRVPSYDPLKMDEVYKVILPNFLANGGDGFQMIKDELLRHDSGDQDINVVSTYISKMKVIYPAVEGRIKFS
Description: To map the epitope of CL25, Hydrogen-deuterium exchange mass spectrometry (HDX) was performed. CD73 was incubated in deuterium oxide either alone or in complex with CL25 Fab. The deuterium exchange was carried out at 20° C. for 0 seconds, 60 seconds, 600 seconds, or 3600 seconds. The exchange reaction was quenched by low pH and the proteins were digested with pepsin/protease VIII. The deuterium levels at the identified peptides were monitored from the mass shift on LC-MS. The deuterium buildup curves over exchange time for all the peptides were plotted vs time. Peptides with significant reduction in deuterium uptakes upon binding to Fab were assigned as the epitopes for each antibody.

[4] = biological target: T4, recombinant human CD73 (rhuCD73) (SEQ ID NO:70) (Homo sapiens, UniProt P21589); assay: Soluble CD73 inhibition (AMP-Glo); assay type: biochemical; details: 0.008 μg/mL rhuCD73, 100 μM AMP
T4 sequence (P21589 27-549): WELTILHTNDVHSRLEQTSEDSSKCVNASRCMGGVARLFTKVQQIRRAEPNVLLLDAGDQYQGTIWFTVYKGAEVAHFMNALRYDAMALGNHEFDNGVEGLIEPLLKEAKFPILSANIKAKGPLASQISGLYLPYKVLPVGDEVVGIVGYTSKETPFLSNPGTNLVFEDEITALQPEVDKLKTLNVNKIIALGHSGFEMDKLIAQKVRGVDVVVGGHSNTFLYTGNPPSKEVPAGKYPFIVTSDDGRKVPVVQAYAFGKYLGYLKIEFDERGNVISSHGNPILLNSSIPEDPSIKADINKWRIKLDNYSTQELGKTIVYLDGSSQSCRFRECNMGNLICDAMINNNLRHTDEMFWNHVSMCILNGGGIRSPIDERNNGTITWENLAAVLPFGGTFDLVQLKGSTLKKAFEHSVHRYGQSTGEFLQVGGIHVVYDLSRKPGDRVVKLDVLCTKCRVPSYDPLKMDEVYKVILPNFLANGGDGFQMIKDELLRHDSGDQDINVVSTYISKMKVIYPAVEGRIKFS
Description: To measure the ability of the CD73 antibodies to inhibit CD73 activity of recombinant protein, recombinant human CD73 (rhuCD73) (SEQ ID NO:70) was added to 96-well plates at a final concentration of 0.008 μg/mL with the indicated concentration of antibodies (FIG. 4) or adenosine 5′-[α,β-methylene]diphosphate (APCP) and incubated at 37° C. 5% CO2 for 30 minutes. After the 30 minute incubation, AMP was added to a final concentration of 100 μM and the reactions were incubated an additional 3 hours at 37° C. 5% CO2. 25 μL of supernatant was transferred into new 96-well plates. The AMP-Glo Assay was used according to the manufacturer's instructions. RLU is a directly correlated with the AMP concentration in this assay. Results are depicted in FIG. 4.
Results are depicted in FIG. 9.

[5] = cynomolgus CD73, closed conformation
[6] = human CD73, closed conformation (100 μM APCP, 10 μM ZnCl2)
[7] = human CD73, open conformation, 25° C.

cynomolgus CD73 (SEQ ID NO: 72), sequence (as listed by the source): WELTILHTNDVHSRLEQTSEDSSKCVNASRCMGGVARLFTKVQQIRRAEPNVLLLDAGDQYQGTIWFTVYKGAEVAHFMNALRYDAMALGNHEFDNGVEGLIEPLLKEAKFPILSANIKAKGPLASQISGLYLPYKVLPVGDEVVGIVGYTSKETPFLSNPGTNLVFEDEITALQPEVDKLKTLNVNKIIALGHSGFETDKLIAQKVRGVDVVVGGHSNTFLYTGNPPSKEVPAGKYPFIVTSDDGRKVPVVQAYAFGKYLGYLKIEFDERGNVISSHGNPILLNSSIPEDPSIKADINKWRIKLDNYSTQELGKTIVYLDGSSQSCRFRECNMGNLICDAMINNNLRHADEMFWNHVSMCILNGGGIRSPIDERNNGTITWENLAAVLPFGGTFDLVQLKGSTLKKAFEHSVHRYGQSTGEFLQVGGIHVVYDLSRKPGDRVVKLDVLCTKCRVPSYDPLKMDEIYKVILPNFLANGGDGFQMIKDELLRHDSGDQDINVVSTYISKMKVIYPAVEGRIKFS

B1: CL25: chimeric anti-human CD73 monoclonal antibody, murine VH SEQ ID NO:26 and VL SEQ ID NO:27 with human IgG1 Fc (antibody, V domains shown)
VH: QVQLQQSGAELARPGASVKLSCRASGYTFTSYGLSWVKQRTGQGLEWIGEIYPGSGNTYYNEKFKGKATLTADKSSSTAYMELRSLTSEDSAVYFCARYDYLGSSYGFDYWGQGTTLTVSS
VL: DIVMTQSHKFMSTSVGDRVSITCKASQDVSTAVAWYQQKPGQSPKLLIYSASYRYNGVPDRFTGSGSGTDFTFTISSVQAEDLAVYYCQQHYNTPYTFGGGTKLEIK
modifications: human IgG1 Fc constant regions without entry
ka [1, 5]: 936000 M⁻¹ s⁻¹ | kd [1, 5]: 0.000495 s⁻¹ | kd ([1]; cynomolgus CD73, open conformation): 0.000658 s⁻¹ | ka [2, 6]: 903000 M⁻¹ s⁻¹ | kd [2, 6]: 0.000344 s⁻¹ | ka [2, 7]: >1e+06 M⁻¹ s⁻¹ | kd [2, 7]: 0.000394 s⁻¹ | KD ([3]; murine CD73, closed conformation (merged ka/kd/KD cell)): No Binding | KD ([3]; murine CD73, open conformation (merged ka/kd/KD cell where no binding)): No Binding | epitope determined by HDX-MS (human CD73): TKVQQIRRAEPNVL | hook-effect in inhibition of recombinant CD73 [4]: no hook-effect | inhibition of recombinant CD73 [4]: high potency
